Source: paper doi:10.1101/2022.01.24.477625 (bioRxiv, 2022)

Target: SARS-CoV-2 spike protein (FL-GCN4-Avi-His, biotinylated) (SARS-CoV-2, Wuhan-Hu-1, UniProt P0DTC2, stabilised, biotin on the Avi tag)
Test: BLI

Binder	binding result
CV27 IgG (antibody, V domains shown) VH: QVQLVESGGGVVQPGRSLRLSCAASGFTFSSYAMHWVRQAPGKGLEWVALISYDGSNKYYADSVKGRFTISRDNSKNTLYLQMNSLRAEDTAVYYCARSFGGSYYYGMDVWGQGTTVTVSS VL: QSALTQPASVSGSPGQSITISCTGTSSDVGGYNYVSWYQQHPGKAPKLMIYDVSNRPSGVSNRFSGSKSGNTASLTISGLQAEDEADYYCSSYTSSSTPYVFGTGTKVTVL	binds
CV27 FAb (Fab, V domains shown) VH: QVQLVESGGGVVQPGRSLRLSCAASGFTFSSYAMHWVRQAPGKGLEWVALISYDGSNKYYADSVKGRFTISRDNSKNTLYLQMNSLRAEDTAVYYCARSFGGSYYYGMDVWGQGTTVTVSS VL: QSALTQPASVSGSPGQSITISCTGTSSDVGGYNYVSWYQQHPGKAPKLMIYDVSNRPSGVSNRFSGSKSGNTASLTISGLQAEDEADYYCSSYTSSSTPYVFGTGTKVTVL	binds
